Source: patent US6887467B1, “Double mutants of dihydrofolate reductase and methods of using same” (Sloan-Kettering Institute for Cancer Research, priority 1996, dated 2005)
Where two headings read alike, the source gives them in different places.

How the values were obtained:
[1] = tested on: human DHFR (wild type and variants); assay: Inhibition constants (Ki) of antifolates for DHFR variants from steady state reaction rates; assay type: biochemical; settings: for Ki Kcat/km relative: relative to wt = 1, MTX
From the text: The first parameter, Ki, is the “inhibition constant” and reflects the level of inhibition by a given compound. Ki, is obtained from steady state reaction rates observed for mixtures of enzyme, cofactor. 7,8-dihydrofolate (the normal substrate) and variable levels of antifolate. The higher the value of Ki, the higher the concentration of antifolate required to inhibit the activity of the enzyme on the normal substrate.
(§1) The parameters Km and kcat can be combined to provide a measure of overall catalytic efficiency which is given by kcat/Km. High levels of catalytic efficiency are preferred.

[2] = tested on: human DHFR (wild type and variants); assay: Kinetic parameters (Km, kcat) of purified DHFR variants with 7,8-dihydrofolate; assay type: biochemical
Method: Km or the “Michaelis constant” reflects the ability of an enzyme to convert a given substrate to product. In this case, the substrate is the normal substrate, 7,8-dihydrofolate. Km is determined using a double reciprocal plot of the initial velocity of the reaction as a function of the concentration of the substrate. Higher values of Km reflect a decreased affinity for the normal substrate.
kcat reflects the catalytic turnover of the enzyme. kcat values are obtained by active site titration experiments using MTX or from activity and total protein measurements of purified enzyme species.
as §1
Enzyme expressed by the transformed E. coli was purified using an MTX-affinity column, followed by DEAE-Sephacel column chromatography.

Row | Ki ([1]; inhibitor aminopterin, read-out: Ki APT) [pM] | Ki ([1]; inhibitor methotrexate, read-out: Ki (MTX)) [pM] | Ki ([1]; inhibitor piritrexin, read-out: Ki PTX) [pM] | Ki ([1]; inhibitor trimetrexate, read-out: Ki TMTX) [pM] | Molecule | Ki Kcat/km relative [1] | kcat [2] [s⁻¹] | Km ([2]; substrate 7,8-dihydrofolate, read-out: Km (H2folate)) [µM] | Ki Kcat/km ([1]; product of Ki (MTX) and catalytic efficiency) [s⁻¹]
1 | – | – | – | – | N[C@@H](Cc1ccc(O)cc1)C(=O)O [22 tyrosine, reference compound] | 104 | – | – | –
2 | 1.8 | 1.2 | 132 | 13 | wild type: wild-type human dihydrofolate reductase, leucine at amino acid 22 and phenylalanine at amino acid 31 (protein, UniProt P00374 1-187, looked up) Dihydrofolate reductase: MVGSLNCIVAVSQNMGIGKNGDLPWPPLRNEFRYFQRMTTTSSVEGKQNLVIMGKKTWFSIPEKNRPLKGRINLVLSRELKEPPQGAHFLSRSLDDALKLTEQPELANKVDMVWIVGGSSVYKEAMNHPGHLKLFVTRIMQDFESDTFFPEIDLEKYKLLPEYPGVLSDVQEEKGIKYKFEVYEKND | 1 | 12.7 | 0.08 | 0.191
